The values below come from article PMC3612083, “Imaging Beads-Retained Prey Assay for Rapid and Quantitative Protein-Protein Interaction” (PLoS ONE, 2013).

The target in assay [1] is T1, GST-GRIP Y2177A (Golgin245 GRIP Y2177A in pGEB) (UniProt Q13439 2168-2215, Y2177A).
T1 construct: GRIP domain of Golgin245 with Y2177A; insert moved from the pEGFP-C2 construct by EcoRI/BamHI into pGEB; pGEB is a modified pGEX-KG vector; also called Y2177A mutant
T1 chain (looked up): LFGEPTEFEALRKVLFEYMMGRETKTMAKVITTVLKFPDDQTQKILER
Briefly: pull-down; imaging beads-retained prey (IBRP) assay: GST-bait on glutathione beads (16 µg/µl), HEK293 lysate with GFP-prey, 100 µM GMPPNP; 30 min at 4°C, washes with 300 mM NaCl, bead fluorescence imaged; GFP lysate as control. Conditions: one partner purified.

Assay [2] concerns the target T2, GST-Arl1 (UniProt P61212 1-181).
T2 construct: Arl1; also called Arl1-GMPPNP; source: loaded with GMPPNP or GDP on the beads
T2 sequence (looked up): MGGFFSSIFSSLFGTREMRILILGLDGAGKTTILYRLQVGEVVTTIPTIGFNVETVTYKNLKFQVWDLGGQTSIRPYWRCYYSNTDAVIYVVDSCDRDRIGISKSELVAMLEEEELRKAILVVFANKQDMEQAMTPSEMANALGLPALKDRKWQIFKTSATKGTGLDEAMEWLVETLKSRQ
Kind of assay: pull-down; IBRP assay: GST-Arl1 on glutathione beads (13 µg/µl) loaded with GMPPNP, HEK293 lysate with GFP-prey; bead fluorescence imaged. Conditions: one partner purified.

No end group written: not given here.

B1: Arl1-GFP (wild type rat Arl1 in pEGFP-N1) (natural protein, UniProt P61212 1-181, looked up)
chain: MGGFFSSIFSSLFGTREMRILILGLDGAGKTTILYRLQVGEVVTTIPTIGFNVETVTYKNLKFQVWDLGGQTSIRPYWRCYYSNTDAVIYVVDSCDRDRIGISKSELVAMLEEEELRKAILVVFANKQDMEQAMTPSEMANALGLPALKDRKWQIFKTSATKGTGLDEAMEWLVETLKSRQ
notes: Arl1, ARF family small GTPase, rat, wild type; source: HEK293, transfected, in lysate
For B1, in assay [1], the “fold reduction of the interaction (IBRP affinity) against wild type GST-GRIP” value was more than 14 fold.

B2: GFP-GRIP (Golgin245 GRIP domain wild type in pEGFP-C2) (domain or fragment, UniProt Q13439 2168-2215, looked up)
chain: {GFP}-LFGEPTEFEYLRKVLFEYMMGRETKTMAKVITTVLKFPDDQTQKILER
notes: GRIP domain of Golgin245; source: HEK293, transfected, in lysate
As for B2, in assay [2], the “relative IBRP affinity with GMPPNP, fold of that with GDP” value came to 3 fold.

B3: GFP-GRIP (Y2177A) (Golgin245 GRIP domain Y2177A mutant in pEGFP-C2) (domain or fragment, UniProt Q13439 2168-2215, looked up)
chain: {GFP}-LFGEPTEFEALRKVLFEYMMGRETKTMAKVITTVLKFPDDQTQKILER
notes: GRIP domain of Golgin245 with Y2177A; source: HEK293, transfected, in lysate
As for B3, the “fold reduction of relative IBRP affinity against wild type GRIP domain” value in assay [2] is approximately 80 fold.
